Where two headings read alike, the source gives them in different places.
Tests used:
CD33 [1] = target: T1, CD33 (Homo sapiens, UniProt P20138); settings: higher than M195; cited from earlier work
[2] = system: relapsed or refractory AML and CML; settings: cited from earlier work
CD33 [3] = target: T1, CD33; settings: human peripheral blood mononuclear cells as effectors, cited from earlier work
relapsed/refractory AML = experiment: Dose escalation (MTD) in patients with relapsed/refractory AML; format: in vivo, human
Protocol: A maximum tolerated dose (MTD) of a single injection of the radiolabeled lintuzumab was determined to be 3 uCi/kg patient weight. As a split dose (e.g., 2 equal doses administered 4-7 days apart), the MTD was determined to be 2 uCi/kg per dose, or 4 uCi/kg total. […] Determination of MTD was based on the severity of the adverse effects observed at each dose level. Anti-leukemic effects included elimination of peripheral blood blasts in 13 of 19 evaluable patients. Twelve of 18 patients who were evaluable at 4 weeks following treatment had reductions in bone marrow blasts, including nine with reductions ≥50%. Three patients treated with 1 uCi/kg, 3 uCi/kg and 4 uCi/kg respectively had ≤5% blasts after therapy.

HL60 (leukemia cells) = experiment: Cytotoxicity against HL60 cell suspensions; format: cell-based
[4] = system: peripheral blood and bone marrow cells; experiment: Reactivity with peripheral blood and bone marrow cells from frozen tissues; format: binding; settings: nonhuman primate and human frozen tissues
AML [5] = experiment: Phase 1 clinical trial, fractionated doses combined with low dose Ara-C (LDAC); format: in vivo, human; settings: fractionated doses on days 1 and 8 combined with LDAC
Text: (§1) Preliminary data are available on 9 with median age 75 years (range, 65-82) and PS median 2 (0-1 in 2 patients, […], & 3 in 2 patients). Six (67%) had prior treatment for AHDs (5 MDS, 1 atypical CML). At baseline, 5 patients had ANC≥500/μL, only 2 had ANC≥1000/μL, and only 1 had platelets >50,000/μL.

AML [6] = experiment: Phase 2 portion, monotherapy without LDAC in AML patients unfit for cytotoxic chemotherapy; format: in vivo, human
Text: as §1
The 30-day mortality rate was 33% (disease progression, acute on chronic respiratory failure, and post-traumatic intracranial hemorrhage after a fall).
Objective responses were documented in 5 of the 9 patients (56%): 2 Complete Remissions with incomplete platelet count recovery (CRp) and 3 Complete Remissions with incomplete hematologic recovery (CRi). Two patients had resistant disease.
The two patients with CRp had neutrophil recovery at Days 60 and 36. Two of the patients with CRi had not reached ANC≥500/μL when they expired from infection on days 65 and 56, and the third is at day 66+ without ANC recovery. Since patients with antecedent hematologic disorders (AHDs) may not have capacity to recover to normal neutrophil production, patients without AHDs may be more informative. Of the 3 patients without AHDs, 1 had ANC recovery at Day 36, 1 had death from infection at Day 56 without ANC recovery, and 1 is pending ANC recovery at Day 66+. […]

[7] = four clinical trials, native HuM195 alone
[8] = 2 equal doses administered 4-7 days apart
[9] = 2 μCi/kg/fraction monotherapy, preliminary

T1 sequence (P20138 18-364): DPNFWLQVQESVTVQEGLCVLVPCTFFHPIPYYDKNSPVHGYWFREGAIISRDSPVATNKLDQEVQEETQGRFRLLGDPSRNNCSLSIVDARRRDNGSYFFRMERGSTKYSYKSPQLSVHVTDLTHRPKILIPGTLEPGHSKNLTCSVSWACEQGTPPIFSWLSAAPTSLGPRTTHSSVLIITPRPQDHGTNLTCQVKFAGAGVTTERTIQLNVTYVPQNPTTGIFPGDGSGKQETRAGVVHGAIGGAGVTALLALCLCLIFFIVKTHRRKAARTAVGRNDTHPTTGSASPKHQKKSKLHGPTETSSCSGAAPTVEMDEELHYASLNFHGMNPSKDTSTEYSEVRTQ

Substance: HuM195: recombinant humanized anti-CD33 monoclonal antibody
- binding avidity relative to M195 (CD33 [1]): greater than 8 fold
- single agent activity in AML ([2]; even at supra-saturating doses that fully blocked CD33 binding sites throughout a 4-week period): very modest activity
- human anti-human antibody responses [2, 7]: not seen
- most common toxicities [2, 7]: Fever, chills, and nausea
- reduction in marrow blast cells [2, 7]: seen in some patients
- antibody-dependent cell-mediated cytotoxicity (ADCC) (CD33 [3]): induced antibody-dependent cell-mediated cytotoxicity
- antibody-dependent cell-mediated cytotoxicity (ADCC) (CD33 [3]; listed as lintuzumab): demonstrated antibody-dependent cell-mediated cytotoxicity

Substance: lintuzumab-Ac^225: Lintuzumab conjugated with Actinium-225 (Ac^225)
- elimination of peripheral blood blasts (relapsed/refractory AML; 0.5 uCi/kg to 4 uCi/kg): 13 of 19
- MTD, split dose, per dose (relapsed/refractory AML; [8]): 2 uCi/kg per dose
- MTD, split dose, total (relapsed/refractory AML; [8]): 4 uCi/kg total
- patients with reductions in bone marrow blasts ≥50% (relapsed/refractory AML; of 18 evaluable at 4 weeks): nine
- maximum tolerated dose (MTD), single injection (relapsed/refractory AML; single injection): 3 uCi/kg patient weight
- patients with ≤5% blasts after therapy (relapsed/refractory AML; treated with 1 uCi/kg, 3 uCi/kg and 4 uCi/kg respectively): Three
- dose at which 50% of the cells were killed (LD50) (HL60 (leukemia cells)): 8 μCi per mL of cell suspension
- reactivity with peripheral blood and bone marrow cells (specificity) [4]: reactivity with mononuclear cells only
- dose at which treatment induced remissions (AML [5]): above 0.5 uCi/kg/fraction
- 30-day mortality rate (AML [6]; 2 μCi/kg/fraction): 33%
- Grade >3 non-hematologic toxicities reported in ≥1 pt (AML [6]; 2 μCi/kg/fraction): pneumonia and cellulitis
- platelet counts >20,000/μL without transfusions (AML [6]; 2 μCi/kg/fraction): No patients reached platelet counts >20,000/μL without transfusions
- veno-occlusive disease (AML [6]; 2 μCi/kg/fraction): did not occur
- objective response rate (AML [6]; [9]): 56%
- objective responses (patients) (AML [6]; [9]): 5 of the 9
- myelosuppression (AML [6]; 2 μCi/kg/fraction, days 1 and 8, preliminary data on 9 patients): seen in all evaluable patients
- grade 4 thrombocytopenia with marrow aplasia for >6 weeks following therapy (AML [6]; 2 μCi/kg/fraction, preliminary data on 9 patients): 3 patients
- median time to neutrophil recovery (ANC≥500/μL) (AML [6]; from the first dose, range 20-60): 36 days
- Complete Remissions with incomplete hematologic recovery (CRi) (AML [6]; of 9 patients): 3
- Complete Remissions with incomplete platelet count recovery (CRp) (AML [6]; of 9 patients): 2
- patients with resistant disease (AML [6]; of 9 patients): Two
